We go through 2 substances from patent US20180119166A1.

The assay deals with 6x-histidine-fused LOS4 (LOS4-His) (Arabidopsis) (UniProt Q93ZG7). Kind of assay: cell-based or functional assay.
Chain of 6x-histidine-fused LOS4 (LOS4-His) (Arabidopsis) (Q93ZG7 other isoform, or with tags, fused parts or gaps limits assumed): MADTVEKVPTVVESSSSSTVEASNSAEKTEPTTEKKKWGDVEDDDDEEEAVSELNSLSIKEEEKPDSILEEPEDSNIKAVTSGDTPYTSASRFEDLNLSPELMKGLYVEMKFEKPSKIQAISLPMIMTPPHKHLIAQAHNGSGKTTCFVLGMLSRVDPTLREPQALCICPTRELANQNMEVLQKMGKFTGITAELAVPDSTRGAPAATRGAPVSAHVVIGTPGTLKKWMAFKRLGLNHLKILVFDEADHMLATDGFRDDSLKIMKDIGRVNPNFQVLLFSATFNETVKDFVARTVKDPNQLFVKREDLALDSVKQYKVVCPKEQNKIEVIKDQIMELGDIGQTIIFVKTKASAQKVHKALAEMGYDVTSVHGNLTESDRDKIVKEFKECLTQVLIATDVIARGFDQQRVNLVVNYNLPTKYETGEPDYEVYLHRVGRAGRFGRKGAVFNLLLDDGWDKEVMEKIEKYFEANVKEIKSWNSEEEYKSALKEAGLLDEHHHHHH

For “MBP fusion protein of the carboxyl-terminal domain of Gle1 (MBP-Gle1C; amino acid residues 244-611) (from UniProt Q0WPZ7 244-611)”, the LOS4 ATPase activity with RNA (LOS4-His and MBP-Gle1C at a ratio of 1:2) stood at 3 fold. As to “MBP-Gle1C (ID) (from UniProt Q0WPZ7 244-611)”, the fold decrease in LOS4-stimulating activity against MBP-Gle1C, absence of InsP6 is > 2 fold.
